In article doi:10.1101/2025.03.28.645892:
Like-named read-outs stand apart in the source and are kept apart here.

Assays:
[1] = target: Arabidopsis thaliana CDC48A (Arabidopsis thaliana) (UniProt P54609); assay: ITC
[2] = target: Arabidopsis thaliana CDC48A (Arabidopsis thaliana) (UniProt P54609); assay: ITC; remark: listed apart in the source
[3] = target: Arabidopsis thaliana CDC48A (Arabidopsis thaliana) (UniProt P54609); assay: cross-linking + SEC-MALS
[4] = target: Arabidopsis thaliana NPL4 (Arabidopsis thaliana) (UniProt O82264); assay: MST
Arabidopsis thaliana NPL4 (Arabidopsis thaliana), sequence (O82264 whole entry): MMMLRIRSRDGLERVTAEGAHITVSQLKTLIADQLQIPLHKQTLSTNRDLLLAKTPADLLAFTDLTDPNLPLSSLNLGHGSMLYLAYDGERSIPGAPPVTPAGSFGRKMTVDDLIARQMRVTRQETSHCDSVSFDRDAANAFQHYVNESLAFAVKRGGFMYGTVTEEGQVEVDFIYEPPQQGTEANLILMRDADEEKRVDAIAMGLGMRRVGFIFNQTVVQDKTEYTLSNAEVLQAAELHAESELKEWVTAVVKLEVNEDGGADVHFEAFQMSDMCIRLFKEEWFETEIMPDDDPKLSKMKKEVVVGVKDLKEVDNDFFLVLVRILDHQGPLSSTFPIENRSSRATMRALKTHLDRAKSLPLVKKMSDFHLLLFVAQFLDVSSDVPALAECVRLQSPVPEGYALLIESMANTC

[5] = target: Arabidopsis thaliana NPL4 (Arabidopsis thaliana) (UniProt O82264); assay: MST; remark: listed apart in the source

Arabidopsis thaliana CDC48A (Arabidopsis thaliana), sequence (P54609 whole entry): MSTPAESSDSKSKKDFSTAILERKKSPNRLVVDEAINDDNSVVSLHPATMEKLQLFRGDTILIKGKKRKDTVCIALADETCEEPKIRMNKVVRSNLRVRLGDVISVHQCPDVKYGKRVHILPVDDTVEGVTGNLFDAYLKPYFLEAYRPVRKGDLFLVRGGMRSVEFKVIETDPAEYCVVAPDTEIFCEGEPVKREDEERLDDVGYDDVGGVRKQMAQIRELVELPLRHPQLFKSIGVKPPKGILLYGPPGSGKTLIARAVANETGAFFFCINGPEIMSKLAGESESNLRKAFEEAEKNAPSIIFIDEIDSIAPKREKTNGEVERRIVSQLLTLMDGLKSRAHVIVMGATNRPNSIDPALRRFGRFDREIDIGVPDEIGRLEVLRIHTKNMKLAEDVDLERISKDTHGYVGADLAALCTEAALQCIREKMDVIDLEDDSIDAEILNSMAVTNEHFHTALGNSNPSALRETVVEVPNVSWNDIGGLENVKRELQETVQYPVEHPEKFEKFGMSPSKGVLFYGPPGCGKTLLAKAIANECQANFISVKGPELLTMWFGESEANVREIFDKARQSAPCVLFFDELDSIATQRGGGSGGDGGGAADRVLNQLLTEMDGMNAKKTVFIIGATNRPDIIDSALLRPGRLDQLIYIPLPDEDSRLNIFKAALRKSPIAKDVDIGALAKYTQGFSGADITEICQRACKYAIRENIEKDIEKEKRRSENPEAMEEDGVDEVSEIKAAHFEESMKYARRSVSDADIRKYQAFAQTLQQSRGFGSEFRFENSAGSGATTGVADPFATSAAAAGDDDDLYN

Substance | Kd [1] | Kd [2] | stoichiometry N (AtNPL4 per AtCDC48A hexamer) [2] | stoichiometry N (copy per six AtCDC48A) [3] | Kd [4] | Kd [5] | stoichiometry N (cofactor per AtCDC48A hexamer) [2]
Arabidopsis thaliana NPL4 (from UniProt O82264 1-413) (natural protein) | 7.1 µM | 2.6 µM | 1 | 1 | – | – | –
Arabidopsis thaliana UFD1A (natural protein) | – | – | – | – | > 200 µM | > 200 µM | –
Arabidopsis thaliana UFD1B (from UniProt Q9SJV0 1-340) (natural protein) | – | 4.4 µM | – | 1 | – | – | 1
